Experimental data reported in the DeepSol protein solubility set.

Experiment: soluble on expression in E. coli; label from the status in PepcDB or PDB records

Soluble on expression in E. coli, not soluble:
MNTHHHIVISIGSNYAAETNIPAAMRLLRDSYPTIRFSKPIENAPIDFPYPSGLFTNLTAHFYSSENREEVGRKLKGIELQLGRTYTKPFDGRVAIDLDLIVWNNTILKNVDYSRPYIQSGLQELRINIQTQLNMTKESRSETFFHNKPNNWNCAQAVQKGFQDLTGMTDEAIEEEYRSKGGGRAEGGLCGALYSANRILESKGLQPVSQEFQAHAGGITCRELKGELKFPCNNCVRLAEELVEQRLSESQTID
MNRFFILSGCSGGGKSTLLAELARRGFATVEEPGRRIVIEETRNGGTALPWIDMQAFARRAIAMALEDRRVTPKEGLVFFDRGLIDAASALHHISGDRFVNTLRDTHRYNSLVFLTPPWPEIYQSDDERKHGFDAAVEEYERLVRDYEGLGYDIVVLPKSAVAERADLILTRIGLEHHHHHH
MIGKLKKGSSFGGCIRYVTGKDEAKIIASDGVLLGTNAEITQSFELQRQLNPRIKKPVGHIALSFKPEDKPRLTDEFMTKIAIEYMQMMGITKTQFIIIRHHNADNPHCHIVYNRINNESKLISDRNDYRRNEQVTKALKSKYGLTYGTDKSNTNTRKLRNAERAKYEIHNAVKDALKMADSWEKLRSELAKRGVHLEFVYKDKAQTKVQGIRFCKDGYSFKGTQICREYSFGKLNAKFEGTENHVSTRANSAQQYEQGCRKNEQVPFMSENCQDPWDGISSIGLFASANAQTFESFPEDESAKKKKKKRRRGFSL
MGSDKIHHHHHHMSTSPLYYAKKTQELCALSDVYITLNRMLSSDGCSLEQLADAIAYEPAIAASILKIANSAMFSMPRKIDSLSKALTILGIKEVKKLVNAYGITAAFSNLDPNVVDMDKFWEISVDCALICQYFAKNKQIPNTDNIFLSGLFHNLGMLAMISSEPAKVRYCEGYDRDETPWFRQNQVFGFTFADCTTELLKLWDLPDSIIQPIAEFNGAEHEPLPDNSKLLYMASRLAVINADPGLYAKEALIDKAILDDLGIESSDMSQSLEYCNEQAMELLATFPIQGRKSSE
MMDRVCRLSLAALLAGSGAAYADGSTLTVAYYGGNWGEAFDACVAQPFTEKTGIRVVAEIGNSTTTLAKLQQQSGDAVIDVAYMDGGISELAQEAGVLAPIDLAAIPNAASYLPQAVYKAGDEVFAVSAGYYSLGLIYNTSEVTETPDTWLSLWDESYAGAVALPSPSNSSGVPFVLFLARSVLGDTSESLDPTFAKLKELDTGLLFDSSGAASNAFQSSEVIIGAHFNVGAWDLTDGGLPIGFSVPKEGVWATDARMHVVKGTKNPEGAAQYLDMAASPEAAACLAERLYLGPPVTGVTLAPDVERKLPWGEGGSVEKLHLSDWTEVNARRAAIVERWNREIAN
NDAKKYIVSVLILLVAGMFGGCIKEDYSDCPRPFRLTVRAWDADMQDITETGAVQRVVIFVFDETGRRIDRLMMDAAQVAARKPIPLEYDGPTTVSFVAWANPDDHMLEETANVQNVKDLFFRLSSTDGIAQSPGDLFSGVLTCPIEYGSIEQGTDQTVDIYRRTAQVHIIIRGYQEWLEANGPRQLPDYADILLGETPDTYTGLAELIGNAVQYRPDGQIQNGDFISPIFRVYPTLDTTPLHLKLYAYGQELLNISTGSDGVPFIPVIGKMLNIYIDLRGANLNVLVSVTPWDVVQQYAE
MADPDSYRSSITSRPAFNRTVTSSTQNYGTPASGNRVLKIVTETHTSSVASGLSPYGQGAASTIRDDREREKKEITELNDRLASYIGKVRFLAAQNRKLEADLNVLQSRFGKSTGSVKIMYEMEITTATNVVKETGKDHEEAEKEIGKIKDQLDELRKKFEEAQKGRAEDRLKIDELLVTLSNLEAEINLLKRRIALLEEEVARLKKENFRLTSELQRVRSELDQETLLRIDNQNKVTTILEEIDFMKRGFETELKDLQAQAARDTTSENREYFKNELMNSIRDIRAEYDRFMAGNRNDLESWSQIRVQEINTQTNRQNAEINHKRDEVKRLHSQVSELKSKHAELAARNGLLEKQLEDLNYQLEDDQRSYEAALNDKDAQVRKLREECQALLVELQMLLDTKQTLDGELKVYRRMLEGNSEENGLRQLVEKVVRTSAINEEVDTETMRVVKGEHSSRTSYQRSAKGNVSIKEVSPEGKFVILENTHRDKEEPLGDWKLKRKIDGKREIVFTFPSDYILHPVQTVKIFARGNGVANPPEVLVFEGDDTFGAGANVQTILYNNSGEERATHMQRQSQQTTTS
MLLSIITVAFRNLEGIVKTHASLAHLAQAEDISFEWIVVDGGSNDGTREYLENLNGIYNLRFVSEPDNGIYDAMNKGIAMAQGKFALFLNSGDIFHQDAAYFVRKLKMQKDNVMITGDALLDFGDGHKIKRSAKPGWYIYHSLPASHQAIFFPVSGLKKWRYDLEYKVSSDYALAAKMYKAGYAFKKLNGLVSEFSMGGVSTTNNMELCADAKKVQRQILHVPGFWAELSWHLRQRTTSKTKALYNKS

Soluble on expression in E. coli, soluble:
SVNYYKVLGVPRNASSSDIKRAFHQLALQVHPDKNPGDKEAAEEKFKQVAEAYHILSDAKKRKDYDRSRWNRNKGEIRGDGHDKGETIRVNDSRDETDWEEKICSRRPRHTFQKVTEDEDLFSGDCLFSGPITGSRRASSPFFTVTPIMDTGFSTFVSHESRSYSDDPETFVPYISQGMGKFRLVTTCSKTVNGKRVVTKRVVENIRGPKKIENERLFRHNPSRGWKLMENPCS
MENKEVIIIGAGAAGVGMGVALKDFGINNFAILERKQVGNSFIKWPEQTRFITPSFTSNGFGMPDLNAIAIDTSPSYTLGEERLSGKDYAKYLQLVSEEYKLPIKTNCKVQSIKKEKTGYLLETTKGFIYAEYVIFAMGEFSFPNKSSIKGAYKNSLHYGEINSWIEIKGDKQTIIGGNESAIDAAIELAKLGKRVTIYTDTLGLNIRDADPSKRLAPRTRQRFFDLRVNQKKLDSIKIYTTTKVKKIEKKSTSYILITENGKSLPVENIPILCTGFKNGTKSITASLFKYKENGEVLLNDFDESTIAKNIFLTGPNVRKGNTIFCYIYKFRQRFAVIANEIARRKHITIDEKKLSYYKNQSFYLDGCSGCEVRCSCLEHHHHHH
MSLENICDMNNKVKVAVLDTGIDKEHDYLKDNLVGGIAFECMHDYIFISDKFDDEDGHGTACASIIKKEYEDVELFVIKILRKDGITNIKVLEEALRYLLDTNIRLINLSLSVIGVESVKGLFEVCYELFRKGKIIVCSLANDFDLSYPAMFNNVIGVRGFTLDGDDSFWYNKKYDVQCVMDSNSYISCDINNSYRLPPKCNSYLSAKLTGKIAKILSEKPGITISDLNDKLESLATRNHWDSCDFDECSRIVNFKLDLYDKENALFEGHHHHHH
MTPPIAADYTAQAVSTDTIGYLHSTESGAGVDGPGMRFVFFVSGCQFRCLYCHNPDTWKLHNGRQVSVEQALSEVAPYARFLKFAGGVTISGGEPLMQHEFVGELFHEIKQRFGLHTALDTQGFLHERVSDAWFDDVDLVMLDIKHSDPEKYQALTGQPLQPTLDFALRLKRLRKKMWIRYVLVPGLTDGDADIEKLADFAASLGDVVERVEVLPFHQLGKDKWAQLGMEYQLNDTPIPTAEQAAHARALFASRGLKVTLEHHHHHH
MTLDEEYLDITFLTENGFVRKRCPKCGKHFWTADPEREICGDPPCESYSFIGNPVFKKPFELDEMREYYLNFFERRGHGRIERYPVVARWRTDIYLTIASIADFQPFVTSGVAPPPANPLTISQPCIRLDDLDSVGRTGRHLTLFEMMAHHAFNYPGKEIYWKNETVAYCTELLNELGVKKEDIVYKEEPWAGGGNAGPCLEAIVGGLEVATLVFMNLEEHPEGDIEIKGARYRKMDNYIVDTGYGLERFVWASKGTPTVYDAIFPEVVDTIIDNSNVSFNREDERVRRIVAESSKLAGIMGELRGERLNQLRKSVADTVGVSVEELEGIVVPLEKVYSLADHTRCILFMLGDGLVPSNAGAGYLARLMIRRSLRLAEELELGLDLYDLVEMHKKILGFEFDVPLSTVQEILELEKERYRTTVSKGTRLVERLVERKKKLEKDDLIELYDSHGIPVELAVGIAAEKGAEVEMPKDIYAELAKRHSKAEKVQEKKITLQNEYPATEKLYYDDPTLLEFEAEVIGVEGDFVILNRSAFYPESGGQDNDVGYLIANGGKFEVVDVLEADGVVLHVVKGAKPEVGTKVKGVIDSDVRWRHMRHHSATHVLLYSLQKVLGNHVWQAGARKEFSKARLDVTHFRRPSEEEIKEIEMLANREILANKPIKWEWMDRIEAERKFGFRLYQGGVPPGRKIRVVQVGDDVQACGGTHCRSTGEIGMLKILKVESIQDGVIRFEFAAGEA
MKAFNYYAPTEIIFGCGRVQEIGSITAQYGKKALLVTVPEFPEVKELYEKVKKSLRENGVEVVHFDGVIPNPTTDVVTEGANMAKAAGVDVVIGLGGGSSIDTAKAIAVEATHPGTAWDYNCHTPGPTSATLPIIAIGTTAGTGSQCTQCAVITKTSEKDKSAIWHKNIFPKVAIVDPEVTVTMPKSVTAQTGFDAFAHNFEAYLSVKTSPLVEMMAIEAIKMIKEYLPKALENPNDIEARSKMSLADTLGGLTNSNAGVTLPHGLGMQVGGHAPHVSHGQALAIIYPQFTRYTYAWAIEKFAKVGRIFNPALNELSDEEAAKEACVAIDDFLKKIGLWIGFKDVNVTKEQIREIADDGQVLGDYLNNPRVATIDEMYELLMNCYERKE
MSANNTAKNMHPETRAVGSETSSLQASQDEFENLVRNVDVKSRIMDQYADWKGVRYRLGGSTKKGIDCSGFVQRTFREQFGLELPRSTYEQQEMGKSVSRSNLRTGDLVLFRAGSTGRHVGIYIGNNQFVHASTSSGVIISSMNEPYWKKRYNEARRVLSRSLEHHHHHH
MKTADELAKLRRASELITDSMLATIAAARAGSTKLEIIEQLRREETNRGLHFEYCLLTLGASHNRAGSPQAWAEGEILSIDSGGNYHGYIGDLCRMGVLGEPDAELEDLLAEVERIQQAAFAKVRAGVLGSEMIVAAEAELKASPSAAFTDFFCHGMGLITHEAPFLMTNHPVAYEGIDADKPLEAGNVISVETTMLHPKRGFIKLEDTLAITDKGYEMFGDRGRGLEHHHHHH
KKHTGYVGLKNQGATCYMNSLLQTLFFTNQLRKAVYMMPTEGDDSSKSVPLALQRVFYELQHSDKPVGTKKLTKSFGWETLDSFMQHDVQELCRVLLDNVENKMKGTCVEGTIPKLFRGKMVSYIQCKEVDYRSDRREDYYDIQLSIKGKKNIFESFVDYVAVEQLDGDNKYDAGEHGLQEAEKGVKFLTLPPVLHLQLMRFMYDPQTDQNIKINDRFEFPEQLPLDEFLQKTDPKDPANYILHAVLVHSGDNHGGHYVVYLNPKGDGKWCKFDDDVVSRCTKEEAIEHNYGGHDDDLSVRHCTNAYMLVYIRESKLSEVLQAVTDHDIPQQLVERLQEEKRIEAQKRKERQE
MAQYRPDELARYAQRVMDWLHPDGDLTDTERARKRGITLSNQQYDGMSRLSGYLTPQARATFEAVLAKLAAPGATNPDDHTPVIDTTPDAAAIDRDTRSQAQRNHDGLLAGLRALIASGELGQHNGLPVSIVVTTTLTDLQTGAGKGFTGGGTLLPMADVIRMTSHAHHYSPASGRYPQAIFDHGTPLALYHTKRLASPAQRIMLEHHHHHH
SARRISSQGKVTISVDEYSSNPTQAFTHYNINQSRFQPPHVHMVEPLPYDAPKSVGHTRFVCVSDTHSRTDGIQMPFGDVLLHTGDFTELGLPSEVKKFNDWLGGLPYEYKVVIAGNHELTFDKDFMAELIKQDYYRFPSVSKLRSEDFDDVQSLLTNCVYLQDSEVTIKGFRIYGAPWTLWFNGWGFNLPRGQSLLDKWNQIPEDVDILMTHGPPLGFRDWLPKELQRVGCVELLNTVQKRVRPKLHAYGGIHEGYGIMTDGYTTFINSSTCTVSFQPTNPPIIFDLPNPGNS
